# Publication PMC10701690, “Structural characterization of human de novo protein NCYM and its complex with a newly identified DNA aptamer using atomic force microscopy and small-angle X-ray scattering”
# T1: NCYM (Homo sapiens, UniProt P40205 1-109)
# T1 sequence: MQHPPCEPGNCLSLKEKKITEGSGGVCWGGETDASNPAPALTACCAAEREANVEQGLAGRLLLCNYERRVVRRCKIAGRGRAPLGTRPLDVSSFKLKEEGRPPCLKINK
# Legend:
# NCYM [1] = molecular target: T1, NCYM; test: BLI; BLI: 25 C, NCYM 25-400 nM, buffer not stated (selection buffer: 40 mM HEPES pH 7.5, 125 mM NaCl, 5 mM KCl, 1 mM MgCl2, 0.01% Tween 20); AFM: 20 mM Tris-HCl pH 7.4, 10 mM MgCl2, 1 mM EDTA, 25 C, 2 h, NCYM 100 nM, aptamer frame 10 nM; SAXS: 293 K; conditions: protein: recombinant, tags: N-terminal GST tag cleaved, 8 vector residues left (117 aa; stated for SAXS), label: 5'-biotin (BLI)
# NCYM [2] = molecular target: T1, NCYM; test: BLI; text gives 299 nM as top of range; BLI: 25 C, NCYM 25-400 nM, buffer not stated (selection buffer: 40 mM HEPES pH 7.5, 125 mM NaCl, 5 mM KCl, 1 mM MgCl2, 0.01% Tween 20); AFM: 20 mM Tris-HCl pH 7.4, 10 mM MgCl2, 1 mM EDTA, 25 C, 2 h, NCYM 100 nM, aptamer frame 10 nM; SAXS: 293 K; conditions: protein: recombinant; tags: N-terminal GST tag cleaved, 8 vector residues left (117 aa; stated for SAXS); label: 5'-biotin (BLI)
binder,measurement,setting,value
aptamer No. 1 (ssDNA) DNA: GGAATGTGGTCCCTCGCAATAAATCTATGTACGTTATTCCCCTTTGACCAATGCTGAAATGAGCCCTTTGACCCTGTAC,Kd,"NCYM [1]; stem-loops predicted by RNAfold, dimer in solution (SAXS)",176 ± 29.1 nM
aptamer No. 2 (ssDNA) DNA: GGAATGTGGTCCCTCGCAATAAATCGGGGAGGGAGGGTGGGGGCGGTGGGAGGTGGAAATGAGCCCTTTGACCCTGTAC,Kd,NCYM [2],298 ± 88.7 nM
aptamer No. 3 (ssDNA) DNA: GGAATGTGGTCCCTCGCAATAAATCGGGCGTTGTGGAGGGGGCGGTGGGTGGGGGGAAATGAGCCCTTTGACCCTGTAC,Kd,NCYM [1],53.9 ± 1.06 nM
